Measurements published in patent US20120316071A1 (published 2012).

Legend:
[1] = molecular target: T1, rHuman EGF R/Fc Chimera, CF (R&D Systems Cat#344-ER) (human, UniProt P00533 25-645); assay: MSD ECL multispot assay, antigen spotted on plate, Fab in solution; blank spot of this row 504
T1 construct: Bought recombinant protein; not shown: Fc of the bought chimera

[2] = molecular target: T2, rHuman Notch-1/Fc Chimera, CF (R&D Systems Cat#3647-TK) (human, UniProt P46531 19-526); assay: as above
T2 construct: Bought recombinant protein; not shown: Fc of the bought chimera

[3] = molecular target: T3, Recombinant Human DLL4 (R&D Systems Cat#1506-D4/CF) (human, UniProt Q9NR61 27-524); assay: as above
T3 construct: Bought recombinant protein; also called delta-like protein 4; rHuman DLL4

[4] = molecular target: T4, rHuman IGF-1 sR (insulin-like growth factor-1 soluble receptor), CF (R&D Systems Cat#391-GR) (human, UniProt P08069 31-932); assay: as above
T4 construct: Bought recombinant soluble receptor

[5] = molecular target: T5, rHuman HGF R/c-MET/Fc Chimera, CF (R&D Systems Cat#358-MT/CF) (human, UniProt P08581 25-932); assay: as above
T5 construct: Bought recombinant protein; also called HGF R/Fc; not shown: Fc of the bought chimera

[6] = molecular target: T6, rHuman ErbB2/Fc Chimera, CF (R&D Systems Cat#1129-ER) (human, UniProt P04626 23-652); assay: as above
T6 construct: Bought recombinant protein; not shown: Fc of the bought chimera

[7] = molecular target: T7, rHuman CD44/Fc Chimera, CF (R&D Systems Cat#3660-CD) (human, UniProt P16070 21-220); assay: as above
T7 construct: Bought recombinant protein; not shown: Fc of the bought chimera

[8] = molecular target: T8, rHuman Erythropoietin R/Fc Chimera, CF (R&D Systems Cat#963-ER) (human, UniProt P19235 25-250); assay: as above
T8 construct: Bought recombinant protein; also called EPO R; EPO R/Fc; not shown: Fc of the bought chimera
T8 sequence (looked up): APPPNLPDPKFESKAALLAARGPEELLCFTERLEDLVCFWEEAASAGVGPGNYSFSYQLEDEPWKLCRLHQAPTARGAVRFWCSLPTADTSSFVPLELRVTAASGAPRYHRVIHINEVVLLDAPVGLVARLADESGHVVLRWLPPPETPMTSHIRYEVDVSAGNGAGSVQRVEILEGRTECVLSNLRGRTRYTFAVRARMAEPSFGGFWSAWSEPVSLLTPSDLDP

[9] = molecular target: T1, rHuman EGF R/Fc Chimera, CF (R&D …); assay: MSD ECL multispot assay, antigen spotted on plate, Fab in solution; blank spot of this row 348
[10] = molecular target: T2, rHuman Notch-1/Fc Chimera, CF (R&D …); assay: as above
[11] = molecular target: T3, Recombinant Human DLL4 (R&D Systems …); assay: as above
[12] = molecular target: T4, rHuman IGF-1 sR (insulin-like growth …); assay: as above
[13] = molecular target: T5, rHuman HGF R/c-MET/Fc Chimera, CF (R&D …); assay: as above
[14] = molecular target: T6, rHuman ErbB2/Fc Chimera, CF (R&D …); assay: as above
[15] = molecular target: T7, rHuman CD44/Fc Chimera, CF (R&D Systems …); assay: as above
[16] = molecular target: T8, rHuman Erythropoietin R/Fc Chimera, CF …; assay: as above
[17] = molecular target: T9, rHuman Notch-1/Fc Chimera, CF (R&D Systems Cat#3647-TK) (human, UniProt P46531 19-526); assay: ECL Multispot (MSD) assay; antigen spotted on plate, Fab in solution;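 also: fab bound 1 h at 20 °C, detected by TAG-labelled antibody electrochemiluminescence, signal relative to each well's blank, ratio of 4 or more marks a hit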
T9 construct: Bought reagent

[18] = molecular target: T10, rHuman ErbB2/Fc Chimera, CF (R&D Systems Cat#1129-ER) (human, UniProt P04626 23-652); assay: as above
T10 construct: Bought reagent; also called human epidermal growth factor 2 receptor

[19] = molecular target: T11, rHuman CD44/Fc Chimera, CF (R&D Systems Cat#3660-CD) (human, UniProt P16070 21-220); assay: as above
T11 construct: Bought reagent

[20] = molecular target: T12, rHuman HGF R/c-MET/Fc Chimera, CF (R&D Systems Cat#358-MT/CF) (human, UniProt P08581 25-932); assay: as above
T12 construct: Bought reagent; also called HGF R/Fc; hepatocyte growth factor receptor

[21] = molecular target: T13, rHuman Erythropoietin R/Fc Chimera, CF (R&D Systems Cat#963-ER) (human, UniProt P19235 25-250); assay: as above
T13 construct: Bought reagent; also called EPO R; Epo R/Fc
T13 sequence (looked up): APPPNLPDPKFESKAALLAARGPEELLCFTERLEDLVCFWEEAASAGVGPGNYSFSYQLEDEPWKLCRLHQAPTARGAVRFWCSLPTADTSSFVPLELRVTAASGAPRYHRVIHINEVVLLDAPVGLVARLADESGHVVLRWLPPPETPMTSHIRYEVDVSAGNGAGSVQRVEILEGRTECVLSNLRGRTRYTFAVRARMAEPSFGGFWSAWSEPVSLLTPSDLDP

[22] = molecular target: T14, rHuman EGF R/Fc Chimera, CF (R&D Systems Cat#344-ER) (human, UniProt P00533 25-645); assay: as above
T14 construct: Bought reagent; also called epidermal growth factor receptor

[23] = molecular target: T15, Recombinant Human DLL4 (R&D Systems Cat#1506-D4/CF) (human, UniProt Q9NR61 27-524); assay: as above
T15 construct: Bought recombinant protein; also called delta-like protein 4; rHuman DLL4

[24] = molecular target: T16, rHuman P-Cadherin/Fc Chimera, CF (R&D Systems Cat#861-PC) (human, UniProt P22223 108-654); assay: as above
T16 construct: Bought reagent

[25] = molecular target: T17, rHuman IGF-1 sR, CF (R&D Systems Cat#391-GR) (human, UniProt P08069 31-932); assay: as above
T17 construct: Bought soluble receptor; the column head 'IGF-1' means IGF-1 sR; also called insulin-like growth factor-1 soluble receptor

[26] = molecular target: T18, rHuman HGF R/c-MET/Fc Chimera, CF (R&D Systems Cat#358-MT/CF) (human, UniProt P08581 25-932); assay: ECL Multispot (MSD) binding assay, antigen spotted on plate, Fab in solution
T18 construct: Bought recombinant Fc chimera; also called HGF R/Fc; hepatocyte growth factor receptor; Fc part of the bought chimera not given

[27] = molecular target: T19, rHuman Erythropoietin R/Fc Chimera, CF (R&D Systems Cat#963-ER) (human, UniProt P19235 25-250); assay: as above
T19 construct: Bought recombinant Fc chimera; also called EPO R; EPO R/Fc; Fc part of the bought chimera not given
T19 sequence (looked up): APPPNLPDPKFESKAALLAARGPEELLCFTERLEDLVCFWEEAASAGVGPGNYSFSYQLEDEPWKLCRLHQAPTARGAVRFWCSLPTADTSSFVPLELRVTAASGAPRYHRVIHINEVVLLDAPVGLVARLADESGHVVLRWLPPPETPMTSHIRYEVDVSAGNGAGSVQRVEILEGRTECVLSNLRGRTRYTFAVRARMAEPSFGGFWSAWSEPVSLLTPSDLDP

[28] = molecular target: T20, Recombinant Human DLL4 (R&D Systems Cat#1506-D4/CF) (human, UniProt Q9NR61 27-524); assay: as above
T20 construct: Bought recombinant human DLL4; also called delta-like protein 4; Delta-like 4

[29] = molecular target: T21, rHuman CD44/Fc Chimera, CF (R&D Systems Cat#3660-CD) (human, UniProt P16070 21-220); assay: as above
T21 construct: Bought recombinant Fc chimera; Fc part of the bought chimera not given

[30] = molecular target: T22, rHuman IGF-1 sR, CF (R&D Systems Cat#391-GR) (human, UniProt P08069 31-932); assay: as above
T22 construct: Bought recombinant soluble receptor; also called insulin-like growth factor-1 soluble receptor

[31] = molecular target: T23, rHuman ErbB2/Fc Chimera, CF (R&D Systems Cat#1129-ER) (human, UniProt P04626 23-652); assay: as above
T23 construct: Bought recombinant Fc chimera; also called human epidermal growth factor 2 receptor; Fc part of the bought chimera not given

[32] = molecular target: T24, rHuman P-Cadherin/Fc Chimera, CF (R&D Systems Cat#861-PC) (human, UniProt P22223 108-654); assay: as above
T24 construct: Bought recombinant Fc chimera; Fc part of the bought chimera not given

[33] = molecular target: T25, rHuman Notch-1/Fc Chimera, CF (R&D Systems Cat#3647-TK) (human, UniProt P46531 19-526); assay: as above
T25 construct: Bought recombinant Fc chimera; Fc part of the bought chimera not given

[34] = molecular target: T26, rHuman EGF R/Fc Chimera, CF (R&D Systems Cat#344-ER) (human, UniProt P00533 25-645); assay: as above
T26 construct: Bought recombinant Fc chimera; also called epidermal growth factor receptor; Fc part of the bought chimera not given

B1: Fab VH1-46_IGHD6-6*01_IGHJ1*01 S102A/S103P/S104F/H111F (APFF) & L6_IGKJ1*01 S92C (Fab, V domains shown)
VH: QVQLVQSGAEVKKPGASVKVSCKASGYTFTSYYMHWVRQAPGQGLEWMGIINPSGGSTSYAQKFQGRVTMTRDTSTSTVYMELSSLRSEDTAVYYCAREEYAPFSAEYFQFWGQGTLVTVSS
VL: EIVLTQSPATLSLSPGERATLSCRASQSVSSYLAWYQQKPGQAPRLLIYDASNRATGIPARFSGSGSGTDFTLTISSLEPEDFAVYYCQQRCNWPPWTFGQGTKVEIKR
notes: Fab; also called APFF / S92C
[1]
  ECL signal: 638
[2]
  ECL signal: 611
[3]
  ECL signal: 1260
[4]
  ECL signal: 666
[5]
  ECL signal: 616
[6]
  ECL signal: 573
[7]
  ECL signal: 646
[8]
  ECL signal: 845
[9]
  ECL signal: 452
[10]
  ECL signal: 439
[11]
  ECL signal: 1340
[12]
  ECL signal: 471
[13]
  ECL signal: 472
[14]
  ECL signal: 425
[15]
  ECL signal: 458
[16]
  ECL signal: 601

B2: Fab VH1-46_IGHD6-6*01_IGHJ1*01 S102A/S103P/S104F (APF) & L6_IGKJ1*01 Y32S (Fab, V domains shown)
VH: QVQLVQSGAEVKKPGASVKVSCKASGYTFTSYYMHWVRQAPGQGLEWMGIINPSGGSTSYAQKFQGRVTMTRDTSTSTVYMELSSLRSEDTAVYYCAREEYAPFSAEYFQHWGQGTLVTVSS
VL: EIVLTQSPATLSLSPGERATLSCRASQSVSSSLAWYQQKPGQAPRLLIYDASNRATGIPARFSGSGSGTDFTLTISSLEPEDFAVYYCQQRSNWPPWTFGQGTKVEIKR
notes: Fab format as for the parent (CH1 with His6/Flag tags, kappa CL); also called APF / Y32S
[17]
  ECL signal: 137
[18]
  ECL signal: 154
[19]
  ECL signal: 162
[20]
  ECL signal: 222
[21]
  ECL signal: 230
[22]
  ECL signal: 208
[23]
  ECL signal: 1030
[24]
  ECL signal: 51
[25]
  ECL signal: 175

B3: Fab VH1-46_IGHD6-6*01_IGHJ1*01 S102A/S103P/S104F/H111F (APFF) & L6_IGKJ1*01 S92G (Fab, V domains shown)
VH: QVQLVQSGAEVKKPGASVKVSCKASGYTFTSYYMHWVRQAPGQGLEWMGIINPSGGSTSYAQKFQGRVTMTRDTSTSTVYMELSSLRSEDTAVYYCAREEYAPFSAEYFQFWGQGTLVTVSS
VL: EIVLTQSPATLSLSPGERATLSCRASQSVSSYLAWYQQKPGQAPRLLIYDASNRATGIPARFSGSGSGTDFTLTISSLEPEDFAVYYCQQRGNWPPWTFGQGTKVEIKR
notes: Tested as a Fab made in E. coli; also called APFF / S92G; H:APFF & L6_IGKJ1*01 S92G
[26]
  ECL signal: 287
[27]
  ECL signal: 543
[28]
  ECL signal: 91400
[29]
  ECL signal: 413
[30]
  ECL signal: 323
[31]
  ECL signal: 377
[32]
  ECL signal: 402
[33]
  ECL signal: 541
[34]
  ECL signal: 420
